Assay results from publication PMC5617202, “Structural and functional insights into the reaction specificity of catalase-related hydroperoxide lyase: A shift from lyase activity to allene oxide synthase by site-directed mutagenesis” (PLoS ONE, 2017).

B1: C. imbricata cAOS (cAOS-H4 domain) (Capnella imbricata) (protein)
chain: MTWKNFGFDIFAERFGKDKLEKRIKDERTPPPDSPVFGGLTLRMKIEKFKTLFTLGTTLKGFRRATHTVGTGGIGEVTVVDDPKFPEHEFFKAGRKLPVRLRHANLKYPDDAGADARSFSIKFSDNDSESPLDIVMNTGEANIFWHTSSLEDFVPVKEGDSAKEYVYKNPYYYYNLVEALRRAPNTFAHLYYYSQVTMHFKAKDGKERYCRYRAIPGDVDIKEEEESGRLTEEEQRNIWTFSRYETEKRPDDYLRKEYVERLKKGPVNYRLQIQIHDVSPNDTATIFHAGILWDKETHPWFDLAKVSITTPMSPDVLERTNFNIVNQPKSLGLLDAKSPEDYNSIGQIRVSVYNWVQHLRKLKLGSLIPAGQN
notes: N-terminal cAOS domain of the AOS-LOX fusion protein, without the LOX domain; cAOS-H4 (His4 tag) in pET11a; E. coli BL21(DE3), Ni-NTA; heme protein; monomer
B2: C. imbricata cAOS (cAOS-H4 domain) (Capnella imbricata; L150F) (protein)
chain: MTWKNFGFDIFAERFGKDKLEKRIKDERTPPPDSPVFGGLTLRMKIEKFKTLFTLGTTLKGFRRATHTVGTGGIGEVTVVDDPKFPEHEFFKAGRKLPVRLRHANLKYPDDAGADARSFSIKFSDNDSESPLDIVMNTGEANIFWHTSSFEDFVPVKEGDSAKEYVYKNPYYYYNLVEALRRAPNTFAHLYYYSQVTMHFKAKDGKERYCRYRAIPGDVDIKEEEESGRLTEEEQRNIWTFSRYETEKRPDDYLRKEYVERLKKGPVNYRLQIQIHDVSPNDTATIFHAGILWDKETHPWFDLAKVSITTPMSPDVLERTNFNIVNQPKSLGLLDAKSPEDYNSIGQIRVSVYNWVQHLRKLKLGSLIPAGQN
notes: as for B1
B3: C. imbricata cHPL (catalase-related hydroperoxide lyase domain) (Capnella imbricata; S177L/Y176N) (protein)
chain: MVWKNFGYEIFAEKFGKDELEKRIKDEHTAPPESPLFGSLKLKMKKEKFKILFTLRTTMEGFRRPTHTVATGGLGEITIVSDPKFPEHEFYRAGRKFPARLRHANLKLLDDAGSDARSFSIKFADNDSESPMDIVMNTGEANIFWNTSSFEDFVSSSAGESAAKEYVYKNPYYYYNLIEALRRAPETFAHLYYYSQLTMHFKAKDGKVRYCRYRAIPGDADIKEEEESGRLTEEEQRNVWIRSRHQNEKRPDDYLRKEYVERLGKGPVNYRLQIQIHEASPDDTATIFHAGIMWNKETHPWFDLAKVSIKTPLSPDVLERTSFNIVNQPESLGLLEAKSPEDYNSIGQIRVAVYKWIQHLRKLKVGSLVPTGQN
notes: N-terminal cHPL domain of the HPL-LOX fusion protein, without the LOX domain; cHPL-His4 in pET11a; E. coli BL21(DE3), Ni-NTA; heme protein; monomer 45 kDa plus oligomers 440-670 kDa
B4: C. imbricata cHPL (catalase-related hydroperoxide lyase domain) (Capnella imbricata; E60K/M59L) (protein)
chain: MVWKNFGYEIFAEKFGKDELEKRIKDEHTAPPESPLFGSLKLKMKKEKFKILFTLRTTLKGFRRPTHTVATGGLGEITIVSDPKFPEHEFYRAGRKFPARLRHANLKLLDDAGSDARSFSIKFADNDSESPMDIVMNTGEANIFWNTSSFEDFVSSSAGESAAKEYVYKNPYYYYYSIEALRRAPETFAHLYYYSQLTMHFKAKDGKVRYCRYRAIPGDADIKEEEESGRLTEEEQRNVWIRSRHQNEKRPDDYLRKEYVERLGKGPVNYRLQIQIHEASPDDTATIFHAGIMWNKETHPWFDLAKVSIKTPLSPDVLERTSFNIVNQPESLGLLEAKSPEDYNSIGQIRVAVYKWIQHLRKLKVGSLVPTGQN
notes: as for B3
B5: C. imbricata cHPL (catalase-related hydroperoxide lyase domain) (Capnella imbricata; F150L) (protein)
chain: MVWKNFGYEIFAEKFGKDELEKRIKDEHTAPPESPLFGSLKLKMKKEKFKILFTLRTTMEGFRRPTHTVATGGLGEITIVSDPKFPEHEFYRAGRKFPARLRHANLKLLDDAGSDARSFSIKFADNDSESPMDIVMNTGEANIFWNTSSLEDFVSSSAGESAAKEYVYKNPYYYYYSIEALRRAPETFAHLYYYSQLTMHFKAKDGKVRYCRYRAIPGDADIKEEEESGRLTEEEQRNVWIRSRHQNEKRPDDYLRKEYVERLGKGPVNYRLQIQIHEASPDDTATIFHAGIMWNKETHPWFDLAKVSIKTPLSPDVLERTSFNIVNQPESLGLLEAKSPEDYNSIGQIRVAVYKWIQHLRKLKVGSLVPTGQN
notes: as for B3
B6: C. imbricata cHPL (catalase-related hydroperoxide lyase domain) (Capnella imbricata; I357V) (protein)
chain: MVWKNFGYEIFAEKFGKDELEKRIKDEHTAPPESPLFGSLKLKMKKEKFKILFTLRTTMEGFRRPTHTVATGGLGEITIVSDPKFPEHEFYRAGRKFPARLRHANLKLLDDAGSDARSFSIKFADNDSESPMDIVMNTGEANIFWNTSSFEDFVSSSAGESAAKEYVYKNPYYYYYSIEALRRAPETFAHLYYYSQLTMHFKAKDGKVRYCRYRAIPGDADIKEEEESGRLTEEEQRNVWIRSRHQNEKRPDDYLRKEYVERLGKGPVNYRLQIQIHEASPDDTATIFHAGIMWNKETHPWFDLAKVSIKTPLSPDVLERTSFNIVNQPESLGLLEAKSPEDYNSIGQIRVAVYKWVQHLRKLKVGSLVPTGQN
notes: as for B3
B7: C. imbricata cHPL (catalase-related hydroperoxide lyase domain) (Capnella imbricata; R56G) (protein)
chain: MVWKNFGYEIFAEKFGKDELEKRIKDEHTAPPESPLFGSLKLKMKKEKFKILFTLGTTMEGFRRPTHTVATGGLGEITIVSDPKFPEHEFYRAGRKFPARLRHANLKLLDDAGSDARSFSIKFADNDSESPMDIVMNTGEANIFWNTSSFEDFVSSSAGESAAKEYVYKNPYYYYYSIEALRRAPETFAHLYYYSQLTMHFKAKDGKVRYCRYRAIPGDADIKEEEESGRLTEEEQRNVWIRSRHQNEKRPDDYLRKEYVERLGKGPVNYRLQIQIHEASPDDTATIFHAGIMWNKETHPWFDLAKVSIKTPLSPDVLERTSFNIVNQPESLGLLEAKSPEDYNSIGQIRVAVYKWIQHLRKLKVGSLVPTGQN
notes: as for B3
B8: C. imbricata cHPL (catalase-related hydroperoxide lyase domain) (Capnella imbricata; P65A) (protein)
chain: MVWKNFGYEIFAEKFGKDELEKRIKDEHTAPPESPLFGSLKLKMKKEKFKILFTLRTTMEGFRRATHTVATGGLGEITIVSDPKFPEHEFYRAGRKFPARLRHANLKLLDDAGSDARSFSIKFADNDSESPMDIVMNTGEANIFWNTSSFEDFVSSSAGESAAKEYVYKNPYYYYYSIEALRRAPETFAHLYYYSQLTMHFKAKDGKVRYCRYRAIPGDADIKEEEESGRLTEEEQRNVWIRSRHQNEKRPDDYLRKEYVERLGKGPVNYRLQIQIHEASPDDTATIFHAGIMWNKETHPWFDLAKVSIKTPLSPDVLERTSFNIVNQPESLGLLEAKSPEDYNSIGQIRVAVYKWIQHLRKLKVGSLVPTGQN
notes: as for B3

Columns and labels:
[1] = target: T1, C. imbricata cHPL (catalase-related hydroperoxide lyase domain) (Capnella imbricata, UniProt W8JJ08); experiment: RP-HPLC radiometric product analysis; type: biochemical; details: 20 μM [1-14C]-AA-derived 8R-HpETE; labelled compound
T1 construct: gene AOS-LOXb; N-terminal cHPL domain of the HPL-LOX fusion protein, without the LOX domain; cHPL-His4 in pET11a; E. coli BL21(DE3), Ni-NTA; heme protein; monomer 45 kDa plus oligomers 440-670 kDa

purified protein = substrate: CCCCC/C=C\C/C=C\C=C\[C@@H](C/C=C\CCCC(=O)O)OO; experiment: purified protein; type: biochemical, Capnella imbricata; details: 50 mM Tris pH 8.0, 100 mM NaCl, 1 mM CaCl2, 20 °C, 5–50 μM substrate

T1 sequence (W8JJ08 entry or part of it): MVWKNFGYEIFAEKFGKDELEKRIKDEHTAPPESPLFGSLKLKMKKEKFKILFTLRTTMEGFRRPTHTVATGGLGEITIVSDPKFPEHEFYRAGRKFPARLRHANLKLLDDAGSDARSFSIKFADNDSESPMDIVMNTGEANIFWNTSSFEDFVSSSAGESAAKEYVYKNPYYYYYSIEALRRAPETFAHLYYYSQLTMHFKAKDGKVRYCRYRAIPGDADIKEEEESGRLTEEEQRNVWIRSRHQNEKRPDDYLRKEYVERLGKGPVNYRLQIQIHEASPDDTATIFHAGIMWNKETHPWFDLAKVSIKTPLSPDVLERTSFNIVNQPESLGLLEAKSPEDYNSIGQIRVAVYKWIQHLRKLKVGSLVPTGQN

| Molecule | RP-HPLC radiometric product analysis [1] | Km (purified protein) | kcat (purified protein) | kcat/Km (purified protein) |
| --- | --- | --- | --- | --- |
| CCCCC/C=C\C/C=C\C=C\[C@@H](C/C=C\CCCC(=O)O)OO [8R-HpETE] | Wt cHPL catalyzes the formation of C8-oxo acid and C12 aldehyde | – | – | – |
| B1 | – | 46.6 ± 9.0 µM | 1840 ± 196 s⁻¹ | 3.94e+07 M⁻¹ s⁻¹ |
| B2 | – | 6.7 ± 1.0 µM | 203 ± 8.1 s⁻¹ | 3.03e+07 M⁻¹ s⁻¹ |
| B3 | – | 3.9 ± 0.9 µM | 218 ± 13.8 s⁻¹ | 5.6e+07 M⁻¹ s⁻¹ |
| B4 | – | 7.3 ± 1.9 µM | 7.5 ± 0.6 s⁻¹ | 1e+06 M⁻¹ s⁻¹ |
| B5 | – | 1.8 ± 0.4 µM | 49.6 ± 1.5 s⁻¹ | 2.76e+07 M⁻¹ s⁻¹ |
| B6 | – | 5.0 ± 1.0 µM | 63.9 ± 3.2 s⁻¹ | 1.28e+07 M⁻¹ s⁻¹ |
| B7 | – | 19.0 ± 4.0 µM | 304 ± 22.8 s⁻¹ | 1.6e+07 M⁻¹ s⁻¹ |
| B8 | – | 15.3 ± 2.5 µM | 40.3 ± 2.5 s⁻¹ | 2.6e+06 M⁻¹ s⁻¹ |
